This passage reports amyloid nucleation score results from the supplement of paper PMC12042874.

± gives the uncertainty stated by the source.

This series can be described thus: amyloid nucleation score (Sup35N fusion, yeast selection) (log enrichment); library NNK3; higher = more nucleation; inactive = no reads after selection. The procedure, abridged: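 DiMSum was used to calculate nucleation scores as log enrichment of output over input reads, centred on the mode score of non-aggregating sequences. Sequences with fewer than 100 input reads were not scored. Input and output came from Illumina sequencing of plasmid inserts in psi-negative yeast expressing peptides of 20 random codons fused to Sup35N, induced 24 hours with 100 μM copper sulfate and then grown 7 days at 30°C on medium lacking adenine and uracil.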

With SHFGLDAICFIKLSTDGCTG, the amyloid nucleation score entry was “inactive”.

On to FYSLWRNRYNNSNQEWDIRW, for which the amyloid nucleation score result was “inactive”.

With LLCSKARSCRVDRMKRGGWV, the amyloid nucleation score entry was “inactive”.

Turning to LHSLKHNCVFSAIVGHCFQC, the amyloid nucleation score came out at 2.11 ± 0.098.

GAMCIRWEG: the amyloid nucleation score entry was “inactive”.

On to TATHKLTNIPW, for which the amyloid nucleation score result is “inactive”.

PIIHGCDDLRDFFIARICIS: the amyloid nucleation score result is “inactive”.

As for GTYLKNF, the amyloid nucleation score result is “inactive”.

For the substance RKCRCYLTSFKDPALYLT, the amyloid nucleation score result is “inactive”.

Regarding YRLCLDSCIKIYLQGWVYVY, the amyloid nucleation score entry was “inactive”.

In turn, LSSIAFCFN had an amyloid nucleation score of 1.15 ± 0.15.

FLVLLKTCYDSRPWP: the amyloid nucleation score was 1.72 ± 0.094.

Regarding SSITRVEKSCIFLCTALMLR, the amyloid nucleation score entry was “inactive”.

In the case of GVLTTALVGTCWPSTCFYGL, the amyloid nucleation score result is “inactive”.

In the case of IFIYGPLPPVRCYHYDWWNL, the amyloid nucleation score entry is “inactive”.

As for DTYIGNINESMH, the amyloid nucleation score entry was “inactive”.

As to YFSYLCGVRYLYCFKLCSSM, the amyloid nucleation score entry is “inactive”.

SCKELLPFWARELLRFNRYC: the amyloid nucleation score entry was “inactive”.

On to ASLRDAPILYDASE, for which the amyloid nucleation score result was “inactive”.

As to DTSVYFQSSTCCAKKSGHKP, the amyloid nucleation score entry is “inactive”.

For the substance TWDWGCKVGFRKGKKV, the amyloid nucleation score entry was “inactive”.

NIIYYTTVGHVHSVW returned an amyloid nucleation score of 1.04 ± 0.18.

For the substance LECILADIASCIQPRAYCIS, the amyloid nucleation score result was “inactive”.

In the case of NWDRGLTCHMYRFSNWRWGS, the amyloid nucleation score entry is “inactive”.

On to CSRLPVHRFIP, for which the amyloid nucleation score result is “inactive”.

As for QHSLGG, the amyloid nucleation score entry is “inactive”.

In turn, RKARRGCYVFLPKFSNVEFH showed an amyloid nucleation score of 1.03 ± 0.12.

As for THLFRYKTASTDGCNESKAV, the amyloid nucleation score result is “inactive”.

FYLYLDHVKVNWSRS returned an amyloid nucleation score of 0.989 ± 0.15.

IDCCWSCV came in with an amyloid nucleation score of 0.16 ± 0.34.

Take QKMFVQDLILVLPVISRLV: the amyloid nucleation score entry was “inactive”.

With WMGSVCSFRSIPCSMSTLR, the amyloid nucleation score result is “inactive”.

Turning to VFEHVGWNPHVRYTVNR, the amyloid nucleation score result is “inactive”.

VAFSFYFNSILVSVTRIVGS returned an amyloid nucleation score of 0.773 ± 0.15.

GDSCCDRLYLFFGVWCVRAV: the amyloid nucleation score entry was “inactive”.

Take LFYMLPIIVFAPVLMAWLSF: the amyloid nucleation score entry was “inactive”.

On to TLLMMYKVGYLAMAIRMGGL, for which the amyloid nucleation score entry is “inactive”.

In the case of LAAEFTFMRPARGYFGNKVG, the amyloid nucleation score entry was “inactive”.

As to NSFVASEFKRLYRQWSRVHE, the amyloid nucleation score result is “inactive”.

Regarding TDFDNFSDTF, the amyloid nucleation score result was “inactive”.

With GDNHSQD, the amyloid nucleation score is 0.37 ± 0.16.

On to RRFVFVYINVPC, for which the amyloid nucleation score result is “inactive”.

For SVSVRRNYKLIFAASM, the amyloid nucleation score result is “inactive”.

Turning to TMVLIICDN, the amyloid nucleation score entry is “inactive”.

Take FIGLIVLILRVFGYDTMRYL: the amyloid nucleation score result was “inactive”.

In the case of NAFICGSRYQVVKDSDDHCM, the amyloid nucleation score entry is “inactive”.

As to HKILRSVGFGRILAYGLLDI, the amyloid nucleation score result was “inactive”.

Take DKSLFKII: the amyloid nucleation score entry is “inactive”.

With YAKFCVSASYGVCQKLHGQF, the amyloid nucleation score is 0.331 ± 0.37.

QLLSLVKISNKLTVI: the amyloid nucleation score entry was “inactive”.

The substance SALTIVVLFG registered an amyloid nucleation score of 0.775 ± 0.2.

As for TQSWLCRV, the amyloid nucleation score result was “inactive”.

Take LSLFPMGCIYKHRIGLVTAK: the amyloid nucleation score result was “inactive”.

LPVVFLCRYDSI: the amyloid nucleation score result is “inactive”.

MFFELSLIISCFTEV showed an amyloid nucleation score of 1.42 ± 0.11.

As to TSKFPSDLWSNPPEMYALFI, the amyloid nucleation score entry is “inactive”.

In turn, CVTFFVISTHPHSCSLSN registered an amyloid nucleation score of 2.42 ± 0.083.

RLNAYMCLEMVTLSTRKHVG yielded an amyloid nucleation score of 1.79 ± 0.079.

For TIGEKHCCWSLCIEETLVCD, the amyloid nucleation score entry is “inactive”.

On to LLKEFIL, for which the amyloid nucleation score entry is “inactive”.

On to SESYPTRLSGRKILTRALT, for which the amyloid nucleation score result is “inactive”.

As to IYPLMKTELGRTMILIDLLE, the amyloid nucleation score entry was “inactive”.

Consider GRCMEGS, for which the amyloid nucleation score entry was “inactive”.

Consider ITAVVVSDMYH, for which the amyloid nucleation score entry is “inactive”.

Take GPMWQLAVTCACSDNRMWTK: the amyloid nucleation score amounted to 0.053 ± 0.51.

TKKASSYQVDWFSCCWEYGA: the amyloid nucleation score worked out at 0.708 ± 0.26.

Consider LDSYVDFLTYFSQKGSRHHL, for which the amyloid nucleation score entry was “inactive”.

In the case of DLNRYSWSRKRRLCCSHCRG, the amyloid nucleation score result was “inactive”.

Take SMCKDFSAACESICGIPVGY: the amyloid nucleation score result is “inactive”.

YSFRCVSTSVNGNRVMAAVS: the amyloid nucleation score result is “inactive”.

YELGIHWTYCWL: the amyloid nucleation score was determined as 2.39 ± 0.064.

On to FYDLFN, for which the amyloid nucleation score result is “inactive”.

For the substance RNPDLVVKSQGVNRWGDSRC, the amyloid nucleation score entry is “inactive”.

Regarding NLKNYVFWREILSYVSDPWD, the amyloid nucleation score entry is “inactive”.

On to YWVCPIGFFNCWLNRMTRLM, for which the amyloid nucleation score turned out to be 1.59 ± 0.12.

FYSNPNIVGFLMLLVYILEP: the amyloid nucleation score entry is “inactive”.

On to EVLEFVSNGGMVTEMGP, for which the amyloid nucleation score entry was “inactive”.

TRTCRIWIKSVMGRRWVIRM: the amyloid nucleation score entry was “inactive”.

SLFKEWAWA: the amyloid nucleation score entry is “inactive”.

On to SVSGKRFDVMVLFLHSSKRL, for which the amyloid nucleation score result was “inactive”.

Turning to KRVDYCFMIGVMTCVNHPTE, the amyloid nucleation score entry is “inactive”.

CMLCTQLHNNRRKKSKMCWS: the amyloid nucleation score result was “inactive”.

For NYVMRILILCSNGWLGRECV, the amyloid nucleation score entry was “inactive”.

Consider PHMSLKTFSDS, for which the amyloid nucleation score entry was “inactive”.

For the substance QTQKLFQYI, the amyloid nucleation score entry is “inactive”.

On to NNDMCLYLTGRRFKG, for which the amyloid nucleation score result was “inactive”.

For NVLKSRIGRFIMQIWYTNKW, the amyloid nucleation score result is “inactive”.

On to FDGKMVYFSAEFSFDKFLDR, for which the amyloid nucleation score came to 1.74 ± 0.11.

As to GICHSSRCWGTSENGNWLRI, the amyloid nucleation score result is “inactive”.

Take YSGSNCLSSDEYWWRDDSLT: the amyloid nucleation score entry is “inactive”.

Take FVVSKLYMPRWASLLLCWRL: the amyloid nucleation score entry is “inactive”.

The substance YGNEFEDNPSMATTTDQRAR showed an amyloid nucleation score of 0.468 ± 0.22.

Consider IIMSQMVYIVRDIHFVCWVI, for which the amyloid nucleation score result was “inactive”.

Turning to FVVFIRDIICMVNNFMLMRM, the amyloid nucleation score result is “inactive”.

Regarding GLVYWVQHGCWLTAIQSVLV, the amyloid nucleation score result was “inactive”.

As to NSTDRGLEFRTDHYHT, the amyloid nucleation score result is “inactive”.

VGGLSSDPTADISFVVVFQD returned an amyloid nucleation score of 0.089 ± 0.71.

Consider ARQYAIRWMWSVVIDGGEKS, for which the amyloid nucleation score entry is “inactive”.

Take CTTRMCNGLWNARLRGTTSP: the amyloid nucleation score result was “inactive”.

In turn, NTAYHKRRGW showed an amyloid nucleation score of -0.004 ± 0.71.

Turning to IWLRVITLERLEPQM, the amyloid nucleation score entry is “inactive”.

Regarding MYQVDMMLCTITDWVGSNWY, the amyloid nucleation score is 0.666 ± 0.27.

On to GVCRVVRSNHCMLWFRLDSS, for which the amyloid nucleation score result was “inactive”.

As for LLFCVLFATPINCISLIMSE, the amyloid nucleation score entry is “inactive”.

In the case of HLKCLGNKACEGRVITHVAD, the amyloid nucleation score entry is “inactive”.

For IFLFSSRCALDNIVEPWFFW, the amyloid nucleation score result was “inactive”.

In the case of PNHYWFVAQFWLFSLTACHR, the amyloid nucleation score turned out to be 0.02 ± 0.77.

As for SSDMFFRYESPVH, the amyloid nucleation score entry is “inactive”.

Take CYGLSRCTRAEAMCPKG: the amyloid nucleation score entry was “inactive”.

As for MHYMRFLWSGLLWASVETFV, the amyloid nucleation score result is “inactive”.

Consider NSNDRK, for which the amyloid nucleation score result was “inactive”.

For DSCTDEENM, the amyloid nucleation score result is “inactive”.

For LARFMANLTGNC, the amyloid nucleation score entry was “inactive”.

As to GEILSGITTLGVYYSYVWHL, the amyloid nucleation score result was “inactive”.

Regarding YFNRNQYVDDTCG, the amyloid nucleation score entry was “inactive”.

On to GGEGHSEVRRKTPGITCACI, for which the amyloid nucleation score entry was “inactive”.

Take CNYNTTM: the amyloid nucleation score entry was “inactive”.

As to VFISLVLSDLRSFARVVLGG, the amyloid nucleation score entry is “inactive”.

As for YVAIMLAKSKTRS, the amyloid nucleation score entry was “inactive”.

Take YFLQTEAEVSFEQEVVAISL: the amyloid nucleation score result is “inactive”.

In the case of LVGYRAQLHGVNYSMFVGIS, the amyloid nucleation score entry is “inactive”.

LSFYCFNYSNFDMVWNGKYN: the amyloid nucleation score was 2.29 ± 0.062.

For the substance FLDDSFVFGNRRRWAWGCRG, the amyloid nucleation score entry is “inactive”.

In the case of TISISR, the amyloid nucleation score entry was “inactive”.

In the case of LTKYRGPQDVRNAFSCSNIM, the amyloid nucleation score entry was “inactive”.

Regarding RSTCCWIR, the amyloid nucleation score result is “inactive”.

For RVLDNTSSCRERNVGGDSFA, the amyloid nucleation score result was “inactive”.

Regarding DFVRSNNCYWCFAAFSPCFR, the amyloid nucleation score entry was “inactive”.

For KIHRAGDYWVMSNR, the amyloid nucleation score result was “inactive”.

Take SRVNCLARLRSPARLMPMVR: the amyloid nucleation score entry is “inactive”.

With RYTFGTAIERVLQVILNEMT, the amyloid nucleation score entry was “inactive”.
